# According to US20220363752A1 (VERSEAU THERAPEUTICS, published 2022):
# Positions count from the first letter of the chain named. Primed or numbered codes have the meaning given here. Biotin′ = not defined here
# T1: LRRC25(21-40) biotin peptide (human, not fully specified; N-terminal NH2; C-terminal GGK-Biotin; native Cys changed to Ser)
# T1 peptide: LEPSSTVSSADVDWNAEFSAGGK
# T2: LRRC25(36-55) biotin peptide (human, not fully specified; N-terminal NH2; C-terminal GGK-Biotin; native Cys changed to Ser)
# T2 peptide: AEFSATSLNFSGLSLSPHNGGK
# T3: LRRC25(51-69) biotin peptide (human, not fully specified; N-terminal acetyl; C-terminal GGK-Biotin)
# T3 peptide: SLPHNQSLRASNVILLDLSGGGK
# T4: LRRC25(66-85) biotin peptide (human, not fully specified; N-terminal acetyl; C-terminal GGK-Biotin)
# T4 peptide: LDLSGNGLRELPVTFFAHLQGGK
# T5: LRRC25(81-100) biotin peptide (human, not fully specified; N-terminal acetyl; C-terminal GGK-Biotin)
# T5 peptide: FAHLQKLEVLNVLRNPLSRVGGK
# T6: LRRC25(96-115) biotin peptide (human, not fully specified; N-terminal acetyl; C-terminal GGK-Biotin; native Cys changed to Ser)
# T6 construct: also called Biotin LRRC25 (96-115) peptide
# T6 peptide: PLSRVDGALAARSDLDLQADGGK
# T7: LRRC25(111-130) biotin peptide (human, not fully specified; N-terminal acetyl; C-terminal GGK-Biotin; native Cys changed to Ser)
# T7 peptide: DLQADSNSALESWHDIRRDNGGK
# T8: LRRC25(126-145) biotin peptide (human, not fully specified; N-terminal acetyl; C-terminal GGK-Biotin; native Cys changed to Ser)
# T8 peptide: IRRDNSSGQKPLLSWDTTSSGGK
# T9: LRRC25(141-159) biotin peptide (human, not fully specified; N-terminal acetyl; C-terminal GGK-Biotin; native Cys changed to Ser)
# T9 peptide: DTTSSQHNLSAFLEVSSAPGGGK
# T10: LRRC25(150-165) biotin peptide (human)
# T10 peptide: Ac-SAFLEVSSAPGLASATGG-{Biotin′}
# B1: anti-LRRC25 chimeric antibody 2A07 (antibody, human IgG4, V domains shown)
# VH: EVKLDESGGGLVQPGGSLKLSCATSGFTFSDYYMYWVRQTPEKRLEWVAYISNGGGSTYYPDTVKGRFTISRDNAKNTLYLQMSRLKSEDTAMYYCARSTAVSQMDYWGQGTSVTVSS
# VL: DIVLTQSPAIMSASPGEKVTLTCSASSSVRSSYLNWYQQKPGSSPKLWIHGTSNLASGVPARFSGSGSGTSYSLTISSMEAEDAASYFCHQWSSYPPTFGAGTKLELKR
# B2: anti-LRRC25 chimeric antibody 2C07 (antibody, human IgG4, V domains shown)
# VH: QITLKESGPGILQPSQTLSLTCSFSGFSLTTSGMGVSWIRQPSGKGLEWLAHIYWDDDKRYNPSLRSRLTISKDTSSNQVVLKLTNVDTADTATYYCARRARDYYNSGHWYFDVWGAGTTVTVSS
# VL: DVVMTQTPKSMSMSVGERVTLSCKASENVGTYVSWYQQKPDQSPKLLIFGASNRYTGVPDRFTGSGSATDFTLTISSVQAEDLADYHCGQTYSFPFTFGSGTKLEIKR
# B3: anti-LRRC25 chimeric antibody 2C08 (antibody, human IgG4, V domains shown)
# VH: B2 VH with I2V, T30S, R66K, I71L, V81F, L84I, N86S, A101P, N106G, S107G
# VL: B2 VL with V2I, T7S, S22T, P40A, D41E, F49Y, S77N, A80T, T91S, F94Y
# B4: anti-LRRC25 chimeric antibody 1E01 (antibody, human IgG4, V domains shown)
# VH: DVQLVESGGGLVKPGGSLKLSCAASGFTFSNYAMSWVRQTPEKRLEWVASISRGGNTYYPDSVKGRFTISRDNARNILYLQMSSLRSEDTAIYYCTRGNYGSSLFAYWGQGTLVTVSA
# VL: DIVLTQSPASLTVSLGQRATISCRASKSVSTSGYSYMHWYQQKPGQPPKLLIYLASNLESGVPARFSGSGSRTDFTLTIDPVEADDAATYYCQQNNEDPWTFGGGTKLEIKR
# notes: also called mAb 1E01
# B5: anti-LRRC25 chimeric antibody 3C07 (antibody, human IgG4, V domains shown)
# VH: B4 VH with D1E, Q3K, V5D, N31R, N56S, N73I, N76D, I92M, T96A
# VL: DIVMTQAAFSNPVTLGTSASISCRSSKSLLHSNGITYLYWYLQKPGQSPQLLIYQMSNLASGVPDRFSSSGSGTDFTLRISRVEAEDVGVYYCAQNLELPWTFGGGTKLEIKR
# B6: anti-LRRC25 chimeric antibody 1B03 (antibody, human IgG4, V domains shown)
# VH: EVQLVESGGGLVKPGGSLKLSCAASGFTFSSYAMSWVRQTPEKRLEWVASISRGGNTYYPDSMKGRFTISRDNARNILYLQMSSLRSEDTAMYYCARGQELRLFAYWGQGTLVTVSA
# VL: B4 VL with D1Q, V3L, T12A, K27E, S30D, T31S, S32Y, Y34N, Y36F
# Biological target: T1, LRRC25(21-40) biotin peptide
# Experiment: peptide ELISA
# Outline: (§1)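 Plate-bound streptavidin captured biotinylated 16- to 20-mer LRRC25 ECD overlapping peptides (2 ug/mL), with biotinylated human LRRC25-His as positive control. Chimeric anti-LRRC25 antibodies at 20 nM, 45 min at 37° C in duplicate; detection by HRP anti-human IgG and TMB at A450 nm.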
row,binding result,Binder
1,no binding (tested: 20 nM),B1
2,no binding (tested: 20 nM),B2
3,no binding (tested: 20 nM),B3
4,no binding (tested: 20 nM),B4
5,no binding (tested: 20 nM),B5
6,no binding (tested: 20 nM),B6

# Biological target: T2, LRRC25(36-55) biotin peptide
# Experiment: peptide ELISA
# Outline: as §1
row,binding result,Binder
1,no binding (tested: 20 nM),B1
2,no binding (tested: 20 nM),B2
3,no binding (tested: 20 nM),B3
4,no binding (tested: 20 nM),B4
5,no binding (tested: 20 nM),B5
6,no binding (tested: 20 nM),B6

# Biological target: T3, LRRC25(51-69) biotin peptide
# Experiment: peptide ELISA
# Outline: as §1
row,binding result,Binder
1,no binding (tested: 20 nM),B1
2,no binding (tested: 20 nM),B2
3,no binding (tested: 20 nM),B3
4,no binding (tested: 20 nM),B4
5,no binding (tested: 20 nM),B5
6,no binding (tested: 20 nM),B6

# Biological target: T4, LRRC25(66-85) biotin peptide
# Experiment: peptide ELISA
# Outline: as §1
row,binding result,Binder
1,no binding (tested: 20 nM),B1
2,no binding (tested: 20 nM),B2
3,no binding (tested: 20 nM),B3
4,no binding (tested: 20 nM),B4
5,no binding (tested: 20 nM),B5
6,no binding (tested: 20 nM),B6

# Biological target: T5, LRRC25(81-100) biotin peptide
# Experiment: peptide ELISA
# Outline: as §1
row,binding result,Binder
1,no binding (tested: 20 nM),B1
2,no binding (tested: 20 nM),B2
3,no binding (tested: 20 nM),B3
4,no binding (tested: 20 nM),B4
5,no binding (tested: 20 nM),B5
6,no binding (tested: 20 nM),B6

# Biological target: T6, LRRC25(96-115) biotin peptide
# Experiment: peptide ELISA
# Outline: as §1
row,binding result,Binder
1,no binding (tested: 20 nM),B1
2,no binding (tested: 20 nM),B2
3,no binding (tested: 20 nM),B3
4,no binding (tested: 20 nM),B5

# Biological target: T7, LRRC25(111-130) biotin peptide
# Experiment: peptide ELISA
# Outline: as §1
row,binding result,Binder
1,no binding (tested: 20 nM),B1
2,no binding (tested: 20 nM),B2
3,no binding (tested: 20 nM),B3
4,no binding (tested: 20 nM),B4
5,no binding (tested: 20 nM),B5
6,no binding (tested: 20 nM),B6

# Biological target: T8, LRRC25(126-145) biotin peptide
# Experiment: peptide ELISA
# Outline: as §1
row,binding result,Binder
1,no binding (tested: 20 nM),B1
2,no binding (tested: 20 nM),B2
3,no binding (tested: 20 nM),B3
4,no binding (tested: 20 nM),B4
5,no binding (tested: 20 nM),B5
6,no binding (tested: 20 nM),B6

# Biological target: T9, LRRC25(141-159) biotin peptide
# Experiment: peptide ELISA
# Outline: as §1
row,binding result,Binder
1,no binding (tested: 20 nM),B1
2,no binding (tested: 20 nM),B2
3,no binding (tested: 20 nM),B3
4,no binding (tested: 20 nM),B4
5,no binding (tested: 20 nM),B5
6,no binding (tested: 20 nM),B6

# Biological target: T10, LRRC25(150-165) biotin peptide
# Experiment: peptide ELISA
# Outline: as §1
row,binding result,Binder
1,no binding (tested: 20 nM),B1
2,no binding (tested: 20 nM),B2
3,no binding (tested: 20 nM),B3
4,no binding (tested: 20 nM),B4
5,no binding (tested: 20 nM),B5
6,no binding (tested: 20 nM),B6

# Biological target: T11, His-tagged human LRRC25 extracellular domain protein, human LRRC25-His (human, UniProt Q8N386 21-165)
# T11 construct: The entry holds the extracellular domain, a GSG linker and the His tag; also called LRRC25(ECD)-HIS
# Experiment: ELISA, plate-immobilized antigen
# Outline: (§2)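 Wells coated overnight at 4 °C with 1 ug/mL antigen in PBS pH 7.4. Antibodies titrated from 500 nM in 3-fold steps in 1% skimmed milk/PBS, 1 h at room temperature, then HRP anti-human IgG; TMB read at A450 nm and EC50 taken from binding curves.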
# T11 sequence (Q8N386 other isoform, or with tags, fused parts or gaps): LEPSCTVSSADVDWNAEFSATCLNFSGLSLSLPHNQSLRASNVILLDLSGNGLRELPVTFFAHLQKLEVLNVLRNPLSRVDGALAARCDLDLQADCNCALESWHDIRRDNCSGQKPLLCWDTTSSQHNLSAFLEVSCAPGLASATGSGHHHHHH
row,EC50,Binder
1,0.63 nM,B1
2,0.39 nM,B2
3,2 nM,B3
4,1.3 nM,B4
5,16.1 nM,B5
6,1.3 nM,B6

# Biological target: T12, His-tagged cynomolgus monkey LRRC25 extracellular domain protein, cyno LRRC25-His (cynomolgus monkey)
# T12 construct: The entry holds the extracellular domain, a GSG linker and the His tag
# Experiment: ELISA, plate-immobilized antigen
# Outline: as §2
# T12 sequence (chain, as listed by the source limits assumed): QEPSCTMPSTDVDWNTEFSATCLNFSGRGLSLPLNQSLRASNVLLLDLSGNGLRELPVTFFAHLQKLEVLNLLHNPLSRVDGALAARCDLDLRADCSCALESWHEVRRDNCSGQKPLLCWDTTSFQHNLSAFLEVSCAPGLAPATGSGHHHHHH
row,EC50,Binder
1,4.6 nM,B1
2,0.65 nM,B2
3,1.4 nM,B3
4,83.2 nM,B4
5,~200 nM,B5
6,42.5 nM,B6

# Biological target: T13, biotinylated human LRRC25-His protein (human, UniProt Q8N386 21-165, biotinylated (sites not given))
# T13 construct: also called Biotin LRRC25-His; biotinylated LRRC25 protein
# Experiment: ELISA, 20 nM antibody, biotinylated antigen on streptavidin plate
# Outline: as §1
# T13 sequence (Q8N386 other isoform, or with tags, fused parts or gaps): as the sequence (Q8N386 other isoform, or with tags, fused parts or gaps) above
row,absorbance (A450),Binder
1,2.44 A450,B1
2,2.6 A450,B2
3,2.39 A450,B3
4,1.7 A450,B4
5,0.714 A450,B5
6,1.88 A450,B6

# Biological target: T6, LRRC25(96-115) biotin peptide
# Experiment: as above
# Outline: as §1
row,absorbance (A450),Binder
1,0.052 A450,B1
2,0.054 A450,B2
3,0.049 A450,B3
4,2.56 A450,B4
5,0.134 A450,B5
6,1.64 A450,B6

# Biological target: T11, His-tagged human LRRC25 extracellular …
# Experiment: ELISA, antibody titrated on plate-immobilized Human LRRC25(ECD)-His, A450nm against -log [IgG] (M), left panel
# Procedure: To establish the relative binding strengths of anti-LRRC25 antibodies against human LRRC25, and their cross-reactivity with cynomolgus monkey LRRC25, antibody binding curve analyses were performed and EC50 values against plate-immobilized recombinant human and cyno LRRC25 proteins were determined.
# A typical ELISA was performed by coating overnight in PBS, pH 7.4, at 4° C. in high binding microtiter wells with 1 ug/mL/100 ul per well of human LRRC25-His or cyno LRRC25-His. An anti-human LRRC25 antibody (2A3, LS Bio, LS-C174039-100) and anti-HIS-HRP (Miltenyi Biotec; 130-092-783) served as coating controls for the human and cyno LRRC25 proteins, respectively. […] Anti-LRRC25 antibodies were added (100 ul per well) at 500 nM and serially diluted 3-fold in assay buffer (1% skimmed milk in PBS, pH 7.4). The plate was incubated with gentle agitation for 1 h at room temperature. The plate was washed 3× and HRP-conjugated secondary antibody in assay buffer added [100 ul per well; goat anti-human IgG (Jackson Immunoresearch, cat #715-035-150)], and the plate was incubated as before. Antibody bound to plate-immobilized LRRC25(ECD)-HIS was determined at A450 nm using HRP substrate (3,3′,5,5′-tetramethylbenzidine (TMB); eBioscience; 00-4201-56); 100 μl/well).
row,EC50 (read off the curve),Binder
1,~1 nM,B4
